This is an account of results in patent US10765761B2, “Nucleic acid condensing peptide, nucleic acid condensing peptide set, nucleic acid delivery carrier, nucleic acid delivery method, cell production method, cell detection method and kit” (KABUSHIKI KAISHA TOSHIBA, priority 2016, dated 2020).

Data set [1] deals with plasmid vector (pDNA). As to the kind of experiment: Gel retardation assay: condensability and dissociation with M9, Example 11. It counts as binding. As for the experimental part:
Each of the peptides was dissolved in 10 mM-HEPES (pH: 5.4) and several peptide solutions having different peptide concentrations were prepared.
For M9, one peptide solution was prepared to have a peptide concentration of: (1) 0.24 mg/ml. For mHP-1 and mHP-2, peptide solutions were prepared to have a peptide concentration of 0.24 mg/ml and a mixture ratio between mHP-1 and mHP-2 of 1:3, and 1 μL of M9 was added to one to prepare a peptide solution (2), and M9 was not added to one to prepare a peptide solution (3). Moreover, the plasmid vector (pDNA) was diluted with purified water to prepare a nucleic acid solution having a pDNA concentration of 0.15 mg/ml. […]
As samples for the condensability evaluation, five sets of 5.5 μL of 10 mM-HEPES (pH: 5.4) were prepared, and 4.5 μL of the respective peptide-nucleic-acid solutions described above were added to prepare mixtures. […] After the electrophoresis, the nucleic acid dyed with ethidium bromide was visualized by UV irradiation, and the nucleic acids condensed by the peptide and the nucleic acid dissociating with the peptide and moving into the gel were detected.
FIG. 15 is a photograph showing the agarose gel subjected to UV irradiation. […] When an integrated band with a large molecular weight, which strongly shines is observed in the left lane, it was evaluated as a high condensability.

Data set [2] concerns plasmid vector (pDNA). As to the kind of experiment: Average particle diameter and Zeta potential of peptide-nucleic-acid complexes (zetasizer), Example 1. It counts as physicochemical. As for the experimental part:
The condensability of the nucleic acid by the peptide of the embodiment and the potential of the peptide-nucleic-acid complex were evaluated.
The peptides were each dissolved in 10 mM of HEPES (pH: 5.3) to prepare several peptide solutions having different peptide concentrations.
For the protamine, three peptide solutions were prepared to have peptide concentrations of: (1) 2.1 mg/ml, (2) 2.4 mg/ml and (3) 2.7 mg/ml. For the mHP-4, four peptide solutions were prepared to have peptide concentrations of: (4) 1.8 mg/ml, (5) 2.1 mg/ml, (6) 2.4 mg/ml and (7) 2.7 mg/ml. For the mHP-1, three peptide solutions were prepared to have peptide concentrations of: (8) 2.1 mg/ml, (9) 2.4 mg/ml and (10) 2.7 mg/ml. For the mHP-2, five peptide solutions were prepared to have peptide concentrations of: (11) 1.2 mg/ml, (12) 1.5 mg/ml, (13) 2.1 mg/ml, (14) 2.4 mg/ml and (15) 2.7 mg/ml. For the mHP-3, three peptide solutions were prepared to have peptide concentrations of: (16) 2.1 mg/ml, (17) 2.4 mg/ml and (18) 2.7 mg/ml. Further, plasmid vector (pDNA) was diluted with purified water to prepare a nucleic acid solution having a pDNA concentration of 3.0 mg/ml.
18 sets of nucleic acid solutions (90 μL) put in tubes were prepared and the peptide solutions (1) to (18) (90 μL) described above were dropped respectively therein and mixed while stirring each, to condense the nucleic acids. Thus, the peptide-nucleic-acid complexes were obtained. Then, the mixtures were each diluted with purified water to 25-fold to produce peptide-nucleic-acid solutions. Further, as references, samples containing only each respective peptide were also prepared without adding the nucleic acid solutions thereto.
The average particle diameter and Zeta potential of each of the peptide-nucleic-acid complexes were investigated using the peptide-nucleic-acid solutions. The average particle diameter and Zeta potential were measured using a zetasizer.

Data set [3] in a line: Average particle diameter and Zeta potential of liposome (zetasizer), Example 3. Format: physicochemical. Here is the method: (§1) COATSOME/SS-20 (Nippon Oil & Fats), DOPE, cholesterol and DMG-PEG were dissolved into ethanol at a molar ratio of 5:3:1:0.3, to obtain a lipid solution. Two sets of lipid solutions (0.5 ml) put into tubes were prepared, and 0.5 ml of peptide-nucleic-acid solutions (8) (mHP-1) and (16) (mHP-3) of Example 1 were dropped thereto while stirring each lipid solution, thereby forming liposomes. 9 ml of 10 mM-HEPES (pH: 5.3) was added to each of the liposome solutions to make a total amount of 10 ml (each liposome solution will be referred to as “Complex” hereinafter). Further, on an assumption that the liposome is taken into an organism, and liposome solutions (which will be referred to as “HEPES replacement”) in which ethanol, which is the solvent of Complex is substituted by HEPES were produced. The HEPES replacements were produced by condensing each solution of Complex to 1.5 ml with an ultrafiltration film for 300 kDa, adding 8.5 ml of 100 mM-HEPES (pH: 7.4) to each, performing ultrafiltration, thereafter substituting the solvent with 10 mM-HEPES (pH: 7.4), and finally condensing to 0.5 ml. Further, the HEPES replacements were filtered for sterilization with a filter with a pore diameter of 0.45 μm to prepare solutions (which will be referred to as “0.45 μm” hereinafter).
(§2) The “peptide-nucleic-acid solution”, “HEPES substituent” and “0.45 micrometer”, each of which contain the protamine, mHP-1 or mHP-3 prepared as above were examined in terms of average particle diameter of liposome, Zeta potential and amount of encapsulation of plasmid. The average particle diameter and Zeta potential were measured using a zetasizer. The amount of encapsulation of plasmid was measured using a Quant-iT PicoGreen (registered trademark) dsDNA assay kit.

Data set [4] relates to plasmid. As to the kind of experiment: Amount of encapsulation of plasmid in liposome (Quant-iT PicoGreen dsDNA assay kit), Example 3. It counts as physicochemical. As for the experimental part:
as §1, §2

Data set [5] deals with plasmid vector (pDNA). As to the kind of experiment: Average particle diameter, polydispersity index and Zeta potential of peptide-nucleic-acid complexes, Example 6. It counts as physicochemical. The settings on record: peptide-nucleic-acid complex, total peptide 0.24 mg/ml, pDNA 0.15 mg/ml. Here is the method: Each of the peptides was dissolved into 10 mM-HEPES (pH: 5.4) to prepare several peptide solutions having different peptide concentrations.
For the mHP-1, one peptide solution was prepared to have a peptide concentration of (1) 0.24 mg/ml. For the mHP-2, one peptide solution was prepared to have a peptide concentration of (2) 0.24 mg/ml. For the mHP-1 and mHP-2, five peptide solutions were prepared to have a total peptide concentration of 0.24 mg/ml and mixture ratios between mHP-1 and mHP-2 of: (3) 1:1, (4) 1:3, (5) 1:5, (6) 1:7 and (7) 1:9. Meanwhile, plasmid vector (pDNA) was diluted with purified water to prepare a nucleic acid solution having a pDNA concentration of 0.15 mg/ml.
The peptide solutions (1) to (7) (100 μL) were prepared in tubes and the nucleic acid solution (200 μL) was dropped and mixed thereto while stirring each solution to condense the nucleic acids, and thus peptide-nucleic-acid complexes were obtained.
The peptide-nucleic-acid complexes were investigated in terms of average particle diameter, polydispersity index and Zeta potential using the respective peptide-nucleic-acid solutions. The average particle diameter, polydispersity index and Zeta potential were measured using a zetasizer.

Data set [6] is described as follows: Average particle diameter, polydispersity index and Zeta potential of liposome (Complex), Example 8. Format: physicochemical. Here is the method: COATSOME/SS-20 (Nippon Oil & Fats), DOPE, cholesterol and DMG-PEG were dissolved into ethanol at a molar ratio of 5:3:1:0.3, to obtain a lipid solution. Five sets of 50 μL of lipid solutions put into tubes were prepared, and 50 μL of peptide-nucleic-acid solutions (1) to (4) and (7) of Example 6 were dropped thereto while stirring each lipid solution, thereby forming liposomes. 400 μL of 10 mM-HEPES (pH: 5.4) was added to each of the liposome solutions to make a total amount of 500 μL (this liposome solution will be referred to as “Complex” hereinafter).
The average particle diameter, polydispersity index and Zeta potential of liposome were investigated using the Complex. The average particle diameter, polydispersity index and Zeta potential were measured using a zetasizer.

[7] abbreviates: pDNA/peptide 1/0.7 (peptide conc. 2.1 mg/mL).
Setting [8] is: pDNA/peptide 1/0.8 (peptide conc. 2.4 mg/mL).
Where [9] appears, read: pDNA/peptide 1/0.9 (peptide conc. 2.7 mg/mL).
The mark [10] stands for this setting: peptide solely, no nucleic acid (Reference).
Where [11] appears, read: pDNA/peptide 1/0.6 (peptide conc. 1.8 mg/mL).
Where [12] appears, read: pDNA/peptide 1/0.4 (peptide conc. 1.2 mg/mL).
Setting [13] is: pDNA/peptide 1/0.5 (peptide conc. 1.5 mg/mL).

As for “GNQSSNFGPMKGGNFGGRSSGPYGGGGQYFAKPRNQGGYGGGKCRGKVPGKYGKG [M9, third nucleic acid condensing peptide comprising M9 domain of hnRNP A1]”, the “influence on condensability or dissociation of nucleic acid by mixed mHP-1 and mHP-2 peptide solution” value in data set [1] (M9 added to mHP-1:mHP-2 1:3 peptide solution (FIG. 15)) is given as “does not influence the condensability or dissociation”. For the same sequence, in data set [1] (M9 used solely, 0.24 mg/ml, 0.8% agarose gel (FIG. 15)), the nucleic acid condensability result is “does not exhibit nucleic acid condensability”.

With “PRRRRSSSRPIRRRRPRRASRRRRRRGGRRRR (salmon) [Protamine sequence, reference compound]”, the “Average particle diameter (zAve)” value is recorded as 136.5 nm in data set [2] (setting [7]); 135.9 nm in data set [2] (setting [8]); 139.6 nm in data set [2] (setting [9]); 711.3 nm in data set [2] (setting [10]); 167.8 nm in data set [3] (Peptide-nucleic acid solution); 235.5 nm in data set [3] (liposome, 0.45 μm filtered). In addition, the “Average particle diameter (zAve)” value in data set [3] (liposome, HEPES substitution) was determined as 392.2 nm. The Zeta potential in data set [2] (setting [7]) is −27.8 mV; in data set [2] (setting [8]), −24.9 mV; in data set [2] (setting [9]), −29.5 mV; in data set [2] (setting [10]) it was 28.1 mV; in data set [3] (Peptide-nucleic acid solution), −41.30 mV; in data set [3] (liposome, 0.45 μm filtered), −0.72 mV. In data set [3] (liposome, HEPES substitution), this sequence came in with a Zeta potential of −0.47 mV. The Plasmid inclusion amount in data set [4] (0.45 μm filtered) amounted to 7.97 µg/mL; in data set [4] (HEPES substitution) it was 12.68 µg/mL.

As for “RRRRRRGGRRRRRR (Comperative example of nucleic acid condensing peptide) [mHP-4]”, the “Average particle diameter (zAve)” value is recorded as 130.9 nm in data set [2] (setting [11]); 141.2 nm in data set [2] (setting [7]); 323.4 nm in data set [2] (setting [8]); 212.2 nm in data set [2] (setting [9]); 1083.0 nm in data set [2] (setting [10]). Besides, the Zeta potential in data set [2] (setting [11]) was −23.8 mV; in data set [2] (setting [7]), −30.7 mV; in data set [2] (setting [8]) it was 28.6 mV; in data set [2] (setting [9]), 33.0 mV; in data set [2] (setting [10]) it was 39.7 mV.

“RRRRRRYYRQRQRGGRRRRRR (Comperative example of nucleic acid condensing peptide) [mHP-2]”: the “Average particle diameter (zAve)” value turned out to be 141.8 nm in data set [2] (setting [12]); 139.8 nm in data set [2] (setting [13]); 184.0 nm in data set [2] (setting [7]); 159.0 nm in data set [2] (setting [8]); 158.6 nm in data set [2] (setting [9]); 321.0 nm in data set [2] (setting [10]). The “Average particle diameter (zAve)” value is 169.1 nm in data set [5] and 250.0 nm in data set [6]. Besides, the Zeta potential is on record as −27.7 mV in data set [2] (setting [12]); −17.7 mV in data set [2] (setting [13]); 27.3 mV in data set [2] (setting [7]); 21.6 mV in data set [2] (setting [8]); 34.2 mV in data set [2] (setting [9]); 50.5 mV in data set [2] (setting [10]). Further, the Zeta potential in data set [5] is recorded as −34.1 mV; in data set [6] it was 36.2 mV. The “Polydispersity index (PDI)” value in data set [5] turned out to be 0.285; in data set [6] it was 0.092.
